Data reported in PMC8635433.

What was measured:
[1] = biological target: AZD1222 vaccine preparation of ChAdOx1 (ChAdOx1 nCoV-19) (chimpanzee adenovirus Y25); assay: SPR
[2] = biological target: human adenovirus type 5 (HAdV-C5) viral vector (virus particle) (human adenovirus type 5) (UniProt P04133); assay: SPR
[3] = biological target: human adenovirus type 26 (HAdV-D26) viral vector (virus particle) (human adenovirus type 26); assay: SPR
[4] = biological target: coxsackie and adenovirus receptor (CAR), immobilised for SPR (UniProt P78310); assay: SPR; BIAcore T200; about 2000 RU of CAR, DSG2 and CD46 amine-coupled to a CM5 chip; fiber knob proteins flowed over, 1:2 serial dilutions; 25°C, PBS with 0.001% P20, 30 μl/min; 1:1 interaction model
[5] = biological target: ChAdOx1 penton protein (chimpanzee adenovirus Y25); assay: cryo-EM structure
[6] = biological target: ChAdOx1 hexon (chimpanzee adenovirus Y25); assay: cryo-EM structure
CAR on CHO-CAR cells = CAR on CHO-CAR cells (UniProt P78310); assay: flow cytometry on cells; antibody binding inhibition: serial dilutions of fiber knob (0.00001 to 100 μg per 10^5 cells) on CHO-CAR or CHO-BC1 cells, 30 min on ice, then anti-CAR RmcB or anti-CD46 MEM-258 and Alexa Fluor 488 secondary antibody; IC50 by nonlinear regression
[7] = biological target: ChAdOx1 pIX (chimpanzee adenovirus Y25); assay: cryo-EM structure
[8] = biological target: ChAdOx1 fiber knob protein (chimpanzee adenovirus Y25); assay: crystal structure; ChAdOx1 fiber knob, P1, 1.59 Å, four trimers in the asymmetric unit

CAR on CHO-CAR cells, sequence (P78310 20-365): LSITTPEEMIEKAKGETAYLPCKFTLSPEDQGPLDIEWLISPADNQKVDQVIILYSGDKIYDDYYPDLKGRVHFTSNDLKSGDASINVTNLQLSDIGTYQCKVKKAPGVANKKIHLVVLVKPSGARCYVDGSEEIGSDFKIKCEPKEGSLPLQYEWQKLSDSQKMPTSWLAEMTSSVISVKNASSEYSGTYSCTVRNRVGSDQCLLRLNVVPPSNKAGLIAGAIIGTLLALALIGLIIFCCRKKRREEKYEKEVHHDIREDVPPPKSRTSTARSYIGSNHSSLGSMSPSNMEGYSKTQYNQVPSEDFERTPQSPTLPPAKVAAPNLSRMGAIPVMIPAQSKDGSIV

platelet factor 4 (PF4) (natural protein)
Kd [1]: 514 nM
Kd [2]: 789 nM
Kd [3]: 301 nM

ChAdOx1 fiber knob protein (domain or fragment; other documents disagree on this pair)
Kd [4]: 7.16 nM

ChAdOx1 penton protein (natural protein)
stoichiometry N [5]: 5

ChAdOx1 hexon (natural protein)
stoichiometry N [6]: 3

HAdV-B35 fiber knob protein (domain or fragment)
fold higher IC50 (reference not named: HAdV-C5 or ChAdOx1 fiber knob) (CAR on CHO-CAR cells): > 1000 fold

ChAdOx1 pIX (natural protein)
stoichiometry N [7]: 4

ChAdOx1 fiber knob protein (domain or fragment)
stoichiometry N [8]: 3
